B1: peptide HD2 (from tick evasin EVA4) / CXCL11 (biotinylated, synthetic) (parent complex)
chain 1: EEDDYTAYAPLTCYFT
chain 2: FPMFKRGRCLCIGPGVKAVKVADIEKASIMYPSNNCDKIEVIITLKENKGQRCLNPKSKQARLIIKKVERKNF
B2: peptide HD2 (from tick evasin EVA4) / CXCL14 (biotinylated, synthetic) (parent complex)
chain 1: EEDDYTAYAPLTCYFT
chain 2: SKCKCSRKGPKIRYSDVKKLEMKPKYPHCEEKMVIITTKSVSRYRGQEHCLHPKLQSTKRFIKWYNAWNEKRRVYEE

The first test covers variants of B1.
In the case of chain 1 Y5L, the enrichment is -4.33 log2 (difference from the parental peptide). Turning to chain 1 Y5H, the enrichment is -0.00324 log2 (difference from the parental peptide).

Consider chain 1 T6E, for which the enrichment was 3.52 log2 (difference from the parental peptide). Same read-out and setting: with chain 1 T6L the figure was 3.05 log2 (difference from the parental peptide). Regarding chain 1 T6V, the enrichment was -0.999 log2 (difference from the parental peptide). The same measure, in the same setting: with chain 1 D4Y the figure was -4.43 log2 (difference from the parental peptide); with chain 1 D4Q, -3.62 log2 (difference from the parental peptide). For chain 1 P10T, the enrichment is -0.0022 log2 (difference from the parental peptide). Consider chain 1 P10G, for which the enrichment is 2.73 log2 (difference from the parental peptide). On the same count and under the same terms, with chain 1 P10A the figure was -0.641 log2 (difference from the parental peptide); with chain 1 A7I, 1.35 log2 (difference from the parental peptide). Still for that read-out and setting: in the case of chain 1 A7Y it was 2.5 log2 (difference from the parental peptide). The same measure, in the same setting: in the case of chain 1 T16N it was -3.84 log2 (difference from the parental peptide); in that of chain 1 T16W, 0.43 log2 (difference from the parental peptide); in that of chain 1 T16A, -0.756 log2 (difference from the parental peptide). For chain 1 T16K, the enrichment was -4.41 log2 (difference from the parental peptide). Consider chain 1 T16G, for which the enrichment is 0.304 log2 (difference from the parental peptide). The same measure, in the same setting: in the case of chain 1 T12N it was -0.502 log2 (difference from the parental peptide). Same read-out and setting: in the case of chain 1 T12C it was -5.77 log2 (difference from the parental peptide); in that of chain 1 T12L, -0.306 log2 (difference from the parental peptide). Same read-out and setting: in the case of chain 1 T12P it was -0.00384 log2 (difference from the parental peptide). Take chain 1 E1W: the enrichment was 1.25 log2 (difference from the parental peptide).

As for chain 1 E1F, the enrichment was -0.271 log2 (difference from the parental peptide).

As to chain 1 E1S, the enrichment is -1.7 log2 (difference from the parental peptide). On the same count and under the same terms, with chain 1 E1Q the figure was 2.79 log2 (difference from the parental peptide).

In the case of chain 1 E1T, the enrichment was -1.21 log2 (difference from the parental peptide). On to chain 1 E1M, for which the enrichment is 0.144 log2 (difference from the parental peptide).

chain 1 E1H: the enrichment is -5.11 log2 (difference from the parental peptide). On the same count and under the same terms, with chain 1 E1G the figure was -4.38 log2 (difference from the parental peptide).

Turning to chain 1 D3I, the enrichment was -2.24 log2 (difference from the parental peptide). Still for that read-out and setting: with chain 1 D3L the figure was -0.828 log2 (difference from the parental peptide). With chain 1 D3G, the enrichment was -4.59 log2 (difference from the parental peptide). On the same count and under the same terms, with chain 1 C13H the figure was -5.78 log2 (difference from the parental peptide); with chain 1 C13S, -1.17 log2 (difference from the parental peptide); with chain 1 C13L, -8.45 log2 (difference from the parental peptide). Regarding chain 1 C13N, the enrichment is -3.76 log2 (difference from the parental peptide). In the case of chain 1 C13P, the enrichment is -5.74 log2 (difference from the parental peptide). The same measure, in the same setting: with chain 1 C13T the figure was -3.56 log2 (difference from the parental peptide); with chain 1 A9P, 0.549 log2 (difference from the parental peptide); with chain 1 A9G, -1.08 log2 (difference from the parental peptide). Same read-out and setting: in the case of chain 1 A9S it was -0.211 log2 (difference from the parental peptide); in that of chain 1 A9F, -0.826 log2 (difference from the parental peptide); in that of chain 1 A9Y, -4.48 log2 (difference from the parental peptide). The same measure, in the same setting: in the case of chain 1 Y8G it was -1.09 log2 (difference from the parental peptide). For chain 1 Y8L, the enrichment is -0.881 log2 (difference from the parental peptide).

In the case of chain 1 Y8T, the enrichment was -5.62 log2 (difference from the parental peptide). Same read-out and setting: with chain 1 Y8W the figure was 2.23 log2 (difference from the parental peptide); with chain 1 Y8A, -0.869 log2 (difference from the parental peptide). The same measure, in the same setting: with chain 1 L11F the figure was 2.94 log2 (difference from the parental peptide). Take chain 1 L11K: the enrichment is -4.12 log2 (difference from the parental peptide). Same read-out and setting: in the case of chain 1 F15W it was -6.32 log2 (difference from the parental peptide); in that of chain 1 F15I, -3.39 log2 (difference from the parental peptide).

chain 1 F15K: the enrichment was -4.14 log2 (difference from the parental peptide). Consider chain 1 F15P, for which the enrichment was -3.5 log2 (difference from the parental peptide). Still for that read-out and setting: in the case of chain 1 F15D it was -1.93 log2 (difference from the parental peptide).

In the case of chain 1 E2D, the enrichment is 0.953 log2 (difference from the parental peptide).

On to chain 1 E2N, for which the enrichment is -4.96 log2 (difference from the parental peptide). On to chain 1 E2V, for which the enrichment was -1.84 log2 (difference from the parental peptide).

For the variant chain 1 E2L, the enrichment was -1.04 log2 (difference from the parental peptide). chain 1 E2W: the enrichment was 1.67 log2 (difference from the parental peptide). With chain 1 E2A, the enrichment was -2.47 log2 (difference from the parental peptide). With chain 1 Y14A, the enrichment is -7.18 log2 (difference from the parental peptide). Still for that read-out and setting: with chain 1 Y14W the figure was -6.01 log2 (difference from the parental peptide); with chain 1 Y14L, -3.92 log2 (difference from the parental peptide).

The variants in the next test derive from B2.
As to chain 1 P10H, the enrichment is 0.862 log2 (difference from the parental peptide). On the same count and under the same terms, with chain 1 P10E the figure was 3.27 log2 (difference from the parental peptide). With chain 1 P10M, the enrichment is 2.33 log2 (difference from the parental peptide). In the case of chain 1 P10F, the enrichment was -2.31 log2 (difference from the parental peptide).

On to chain 1 P10Q, for which the enrichment was -4.65 log2 (difference from the parental peptide). The same measure, in the same setting: with chain 1 P10D the figure was -1.54 log2 (difference from the parental peptide); with chain 1 P10L, 0.0771 log2 (difference from the parental peptide). Still for that read-out and setting: in the case of chain 1 E2V it was -0.0348 log2 (difference from the parental peptide).

Take chain 1 E2M: the enrichment is -6.07 log2 (difference from the parental peptide). Take chain 1 E2N: the enrichment is 0.243 log2 (difference from the parental peptide).

For the variant chain 1 D3G, the enrichment was 1.82 log2 (difference from the parental peptide). The same measure, in the same setting: in the case of chain 1 D3Y it was 0.926 log2 (difference from the parental peptide). On the same count and under the same terms, in the case of chain 1 D3F it was -3.03 log2 (difference from the parental peptide); in that of chain 1 D3I, -8.12 log2 (difference from the parental peptide); in that of chain 1 D3N, 1.21 log2 (difference from the parental peptide). For chain 1 T12D, the enrichment is -6.91 log2 (difference from the parental peptide). Consider chain 1 T12G, for which the enrichment was -8.56 log2 (difference from the parental peptide). Still for that read-out and setting: with chain 1 T12E the figure was -5.22 log2 (difference from the parental peptide).

Take chain 1 T12N: the enrichment is -6.02 log2 (difference from the parental peptide). As to chain 1 T12I, the enrichment was 3.47 log2 (difference from the parental peptide). For chain 1 T12M, the enrichment is -4.31 log2 (difference from the parental peptide). For chain 1 T12A, the enrichment was -6.47 log2 (difference from the parental peptide).

For the variant chain 1 Y14E, the enrichment is -0.269 log2 (difference from the parental peptide). Take chain 1 Y14A: the enrichment is -0.328 log2 (difference from the parental peptide). For chain 1 Y14V, the enrichment is -3.62 log2 (difference from the parental peptide). Still for that read-out and setting: with chain 1 Y14C the figure was -4.99 log2 (difference from the parental peptide); with chain 1 D4P, 1.82 log2 (difference from the parental peptide). In the case of chain 1 D4M, the enrichment was -6.89 log2 (difference from the parental peptide).

As to chain 1 D4F, the enrichment was -0.493 log2 (difference from the parental peptide). Take chain 1 T16L: the enrichment was 1.24 log2 (difference from the parental peptide). As for chain 1 T16I, the enrichment is 0.982 log2 (difference from the parental peptide). With chain 1 T16G, the enrichment is 2.47 log2 (difference from the parental peptide).

As to chain 1 T16C, the enrichment is 1.19 log2 (difference from the parental peptide). For chain 1 T16S, the enrichment was -5.85 log2 (difference from the parental peptide). chain 1 T16H: the enrichment is 3.56 log2 (difference from the parental peptide). The same measure, in the same setting: with chain 1 T16W the figure was 2.14 log2 (difference from the parental peptide); with chain 1 T6N, 0.149 log2 (difference from the parental peptide); with chain 1 T6Y, 3.46 log2 (difference from the parental peptide). Consider chain 1 T6S, for which the enrichment was -0.144 log2 (difference from the parental peptide). On the same count and under the same terms, in the case of chain 1 T6K it was -5.43 log2 (difference from the parental peptide).

As to chain 1 T6M, the enrichment was 1.47 log2 (difference from the parental peptide). The same measure, in the same setting: in the case of chain 1 T6E it was 2.79 log2 (difference from the parental peptide). Take chain 1 T6P: the enrichment is 1.85 log2 (difference from the parental peptide). As to chain 1 L11A, the enrichment was 0.339 log2 (difference from the parental peptide). Same read-out and setting: in the case of chain 1 L11V it was -0.136 log2 (difference from the parental peptide). For chain 1 L11C, the enrichment is 0.549 log2 (difference from the parental peptide). Same read-out and setting: in the case of chain 1 L11R it was -4.9 log2 (difference from the parental peptide); in that of chain 1 Y5F, -5.86 log2 (difference from the parental peptide); in that of chain 1 Y5M, -5.9 log2 (difference from the parental peptide). Consider chain 1 Y5L, for which the enrichment is -2.83 log2 (difference from the parental peptide). On the same count and under the same terms, in the case of chain 1 Y5W it was -1.34 log2 (difference from the parental peptide); in that of chain 1 C13N, -4.88 log2 (difference from the parental peptide). For the variant chain 1 C13S, the enrichment was -3.41 log2 (difference from the parental peptide). As for chain 1 C13T, the enrichment was -5.9 log2 (difference from the parental peptide). In the case of chain 1 C13P, the enrichment was -6.86 log2 (difference from the parental peptide).

As to chain 1 A7S, the enrichment is 1 log2 (difference from the parental peptide).

Regarding chain 1 A7G, the enrichment is 1.97 log2 (difference from the parental peptide). The same measure, in the same setting: with chain 1 A7R the figure was 1.24 log2 (difference from the parental peptide).

As for chain 1 A7H, the enrichment is 1.29 log2 (difference from the parental peptide). Take chain 1 A7Y: the enrichment was 2.89 log2 (difference from the parental peptide). Still for that read-out and setting: with chain 1 A7T the figure was -5.45 log2 (difference from the parental peptide).

In the case of chain 1 F15Y, the enrichment is 3.35 log2 (difference from the parental peptide). Same read-out and setting: with chain 1 F15G the figure was -8.03 log2 (difference from the parental peptide). chain 1 F15W: the enrichment was -6.44 log2 (difference from the parental peptide).

With chain 1 F15V, the enrichment is 0.451 log2 (difference from the parental peptide). Turning to chain 1 F15L, the enrichment was -4.99 log2 (difference from the parental peptide). As to chain 1 F15M, the enrichment was 0.3 log2 (difference from the parental peptide). chain 1 F15S: the enrichment is -6.23 log2 (difference from the parental peptide). As for chain 1 F15H, the enrichment was -4.57 log2 (difference from the parental peptide). The same measure, in the same setting: in the case of chain 1 F15C it was 1.14 log2 (difference from the parental peptide).

With chain 1 F15N, the enrichment is -3.99 log2 (difference from the parental peptide). With chain 1 E1S, the enrichment is -6.03 log2 (difference from the parental peptide). On the same count and under the same terms, in the case of chain 1 E1Q it was -2.86 log2 (difference from the parental peptide); in that of chain 1 E1V, -5.63 log2 (difference from the parental peptide). With chain 1 A9Q, the enrichment was 3.77 log2 (difference from the parental peptide).

As for chain 1 A9V, the enrichment was -2.17 log2 (difference from the parental peptide). On to chain 1 A9G, for which the enrichment was -5.95 log2 (difference from the parental peptide).

For the variant chain 1 A9N, the enrichment was 4.16 log2 (difference from the parental peptide). The same measure, in the same setting: in the case of chain 1 A9H it was -6.47 log2 (difference from the parental peptide). On the same count and under the same terms, with chain 1 A9K the figure was -4.89 log2 (difference from the parental peptide). Same read-out and setting: with chain 1 A9F the figure was 0.278 log2 (difference from the parental peptide). For the variant chain 1 A9T, the enrichment is 2.11 log2 (difference from the parental peptide). Consider chain 1 Y8N, for which the enrichment was -4.8 log2 (difference from the parental peptide). Same read-out and setting: in the case of chain 1 Y8M it was 1.74 log2 (difference from the parental peptide). Regarding chain 1 Y8P, the enrichment was -6.13 log2 (difference from the parental peptide).

Take chain 1 Y8L: the enrichment was 0.358 log2 (difference from the parental peptide).

These data come from article PMC11969024 (2025).
